Reference: publication PMC3037662 (The Journal of Biological Chemistry, 2010)

Experiments:
[1] = target: MtrE, His-tagged (wild type) (N. gonorrhoeae FA19) (UniProt Q51006); test: native MS
[2] = target: MtrE, His-tagged (wild type) (N. gonorrhoeae FA19) (UniProt Q51006); test: ITC
MtrD, His-tagged = target: T1, MtrD, His-tagged (N. gonorrhoeae FA19, UniProt Q51073 1-1067); test: ITC
T1 sequence (looked up): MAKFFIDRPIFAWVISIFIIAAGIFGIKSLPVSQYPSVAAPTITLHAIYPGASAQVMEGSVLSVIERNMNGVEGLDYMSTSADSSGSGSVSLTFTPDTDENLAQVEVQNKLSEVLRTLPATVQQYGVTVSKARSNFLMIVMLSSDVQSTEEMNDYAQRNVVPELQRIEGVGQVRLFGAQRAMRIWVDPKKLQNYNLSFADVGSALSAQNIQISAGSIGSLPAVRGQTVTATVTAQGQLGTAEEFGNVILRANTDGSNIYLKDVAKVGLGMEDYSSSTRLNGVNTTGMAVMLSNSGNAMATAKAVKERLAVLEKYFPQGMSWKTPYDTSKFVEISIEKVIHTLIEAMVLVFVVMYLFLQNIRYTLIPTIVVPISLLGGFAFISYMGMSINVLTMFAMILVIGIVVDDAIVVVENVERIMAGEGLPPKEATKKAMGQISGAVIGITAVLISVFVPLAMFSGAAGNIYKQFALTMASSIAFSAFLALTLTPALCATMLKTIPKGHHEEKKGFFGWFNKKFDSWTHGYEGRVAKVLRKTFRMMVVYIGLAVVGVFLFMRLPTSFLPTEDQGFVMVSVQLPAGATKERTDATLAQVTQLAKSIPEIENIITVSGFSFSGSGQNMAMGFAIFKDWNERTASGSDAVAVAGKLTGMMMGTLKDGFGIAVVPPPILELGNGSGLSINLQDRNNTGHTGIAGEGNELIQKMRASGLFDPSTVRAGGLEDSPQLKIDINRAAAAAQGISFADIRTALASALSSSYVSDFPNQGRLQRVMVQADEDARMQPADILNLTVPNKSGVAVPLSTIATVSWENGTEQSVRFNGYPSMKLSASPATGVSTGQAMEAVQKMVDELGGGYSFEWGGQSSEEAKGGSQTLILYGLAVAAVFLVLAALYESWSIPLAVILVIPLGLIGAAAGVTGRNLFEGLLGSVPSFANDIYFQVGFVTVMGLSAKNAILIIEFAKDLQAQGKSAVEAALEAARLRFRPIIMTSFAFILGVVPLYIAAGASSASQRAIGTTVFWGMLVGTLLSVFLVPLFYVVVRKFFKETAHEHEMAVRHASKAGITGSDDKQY

[3] = target: MtrE E434K, His-tagged (N. gonorrhoeae FA19) (UniProt Q51006); test: ITC

Q: For “MtrE, His-tagged (wild type) (from UniProt Q51006 1-467) (natural protein)”, which stoichiometry N [1] is on record?
A: 3

B1: NT-MtrC, N-terminal-truncated (Δ1–34) MtrC, His-tagged (domain or fragment, N. gonorrhoeae FA19, UniProt P43505 35-412, looked up)
chain: GQPAGREAPAPVVGVVTVHPQTVALTVELPGRLESLRTADVRAQVGGIIQKRLFQEGSYVRAGQPLYQIDSSTYEAGLESARAQLATAQATLAKADADLARYKPLVSADAISKQEYDAAVTAKRSAEASVKAAQAAIKSAGINLNRSRITAPISGFIGQSKVSEGTLLNAGDTTVLATIRQTNPMYVNVTQSASEVMKLRRQIAEGKLLAADGAIAVGIKFDDGTVYPEKGRLLFADPTVDESTGQITLRAAVSNDQNILMPGLYVRVLMDQVAADNAFIVPQQAVTRGAKDTVMIVNAQGGMEPREVTVAQQQGTNWIVTSGLKDGDKVVVEGISIAGMTGAKKVTPKEWAPSENQAAAPQAGVQTASEAKPASEAK
Q: For B1, which Kd [2] is on record?
A: 9800 nM

Q: And the dH [2]?
A: -6.84 kcal/mol

Q: And the Ka (MtrD, His-tagged)?
A: 1.2e+06 M⁻¹

Q: What about the Kd (MtrD, His-tagged) of the same molecule?
A: 800 ± 700 nM

Q: What about the dH (MtrD, His-tagged) of the same molecule?
A: 1.41 ± 0.318 kcal/mol

B2: MtrC α-helical coiled-coil hairpin domain (residues 103–183), His-tagged (domain or fragment)
chain: IDSSTYEAGLESARAQLATAQATLAKADADLARYKPLVSADAISKQEYDAAVTAKRSAEASVKAAQAAIKSAGINLNRSRI
Q: Which results are given for B2?
A: Ka [3]: 8.2e+06 M⁻¹; Kd [3]: 130 nM; dH [3]: -4.12 kcal/mol; Ka1 (site 1 of a two-site fit) [2]: 460000 M⁻¹; Ka2 (site 2 of a two-site fit) [2]: 3200 M⁻¹; Kd of the first (high-affinity) site of a two-site fit [2]: 2200 nM; dH1 (site 1 of a two-site fit) [2]: -12 kcal/mol; dH2 (site 2 of a two-site fit) [2]: -62 kcal/mol; dH of the first site of a two-site fit [2]: -11 kcal/mol
